Assay results published in US20120196804A1 (INDIANA UNIVERSITY RESEARCH AND TECHNOLOGY, published 2012).

B1: Oxyntomodulin KRNR (peptide)
peptide: HSQGTFTSDYSKYLDSRRAQDFVQWLMNTKRNR
B2: Glucagon R12 K29 (peptide)
peptide: HSQGTFTSDYSRYLDSRRAQDFVQWLMNK
B3: Glucagon-Cex (peptide)
peptide: HSQGTFTSDYSKYLDSRRAQDFVQWLMNTGPSSGAPPPS
modifications: C-terminal amide

These binders were tested against glucagon receptor (assay: cell-based or functional assay).

Question: With B1 as the binder, how does the “cAMP Induction, EC50 (luciferase reporter, HEK293)” value (from here on “cAMP Induction, EC50”) read?
Answer: The value was 2.77 nM.

Question: For B2, which “cAMP Induction, EC50” value is on record?
Answer: Its value is 0.81 nM.

Question: With B3 as the binder, how does the “cAMP Induction, EC50” value read?
Answer: Its value is 0.25 nM.

These binders were tested against GLP-1 receptor (assay: cell-based or functional assay).

Question: For B1, which “cAMP Induction, EC50” value is on record?
Answer: Its value is 3.21 nM.

Question: How did the “cAMP Induction, EC50” value turn out when B2 was run?
Answer: The value was 0.41 nM.

Question: How did the “cAMP Induction, EC50” value turn out when B3 was run?
Answer: The value was 2.75 nM.
